Laboratory results: US20240025971A1

Experiments:
[1] = target: SARS-CoV-1 spike (pseudovirus) (SARS-CoV-1) (UniProt P59594); experiment: cell-based or functional assay
[2] = target: SARS-CoV-2 Wuhan-1 full-length Spike protein (SARS-CoV-2) (UniProt P0DTC2); experiment: cell-based or functional assay
[3] = target: SARS-CoV-2 Spike (S) trimer (SARS-CoV-2) (UniProt P0DTC2); experiment: ELISA, S trimer coated, 1:50 dilution

Anti-Nucleocapsid (Neg Control) (antibody)
Pseudovirus Neutralization [1]: > 50 µg/mL
Pseudovirus Neutralization [2]: > 50 µg/mL

CA-1 (AB-009265) (antibody)
Optical Density (OD; 450 nm) [3]: 2.74 OD450

CB-6 (AB-009264) (antibody)
Optical Density (OD; 450 nm) [3]: 2.81 OD450
